Source: paper PMC5792032

Key:
[1] = test system: NS5A domain I WT (Hepatitis C virus JFH-1 (genotype 2a)); assay: filter binding; settings: Binding buffer and temperature not given (as in ref 32); slot blot nitrocellulose/nylon, hyperbolic fit; protein dialyzed in 20 mM Tris-HCl pH 8.2, 150 mM …
[2] = molecular target: NS5A domain I (35-215) P35A; assay: GST pulldown, Western blot quantification (Li-Cor Odyssey Sa); settings: parent: est. 7.4; read off a plot
GST control protein = assay: as above; settings: parent: est. 0.78; read off a plot
[3] = molecular target: NS5A domain I (35-215) P145A; assay: as above; settings: parent: est. 7.4; read off a plot
[4] = molecular target: NS5A domain I (35-215) V67A; assay: as above; settings: parent: est. 7.4; read off a plot

Substance	Kd [1]	response [2]	response (GST control protein)	response [3]	response [4]
HCV 3'UTR RNA	246 nM	–	–	–	–
NS5A domain I (35-215), wild type P35A	–	2.5	0.34	–	–
NS5A domain I (35-215), wild type P145A	–	–	0.34	1.3	–
NS5A domain I (35-215), wild type V67A	–	–	0.15	–	0.39
